Data as given in patent publication US12072338B2, “Pharmaceutical peptides for the treatment of inflammatory diseases” (PROTAGONISTS LTD., priority 2007, dated 2024).

Tests used:
GRO-β = biological target: T1, GRO-β (Homo sapiens, UniProt P19875); assay: Micro-array analysis of chemokine binding peptides: GRO-β; settings: limit = start of the upper 75% of that peptide's response range
T1 construct: purchased 300-39
T1 sequence (P19875 35-107): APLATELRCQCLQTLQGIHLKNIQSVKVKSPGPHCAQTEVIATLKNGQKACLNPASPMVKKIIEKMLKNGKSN
Experimental: (§1) (1) Printing: Chemokine (CK) solution (in water) was serially diluted with Print Reagent (GenTel BioSurfaces USA) to final concentrations of 50 μg and 25 μg/ml. BSA/BSA-Biotin control solutions (in water) were diluted with Print Reagent to 100 μg/ml. Amplified stock of M13 phage control (M13KEgIII Cloning Vector, New England Biolabs, Cat.No.E8101S) was stored in Tris Buffered Saline (TBS; pH7.5, 4° C.) and diluted with Print Reagent to the working titre (10^8 pfu/μl). An automated spotting robot (16 pin print tool, 0.4 mm head; BioRobotics, UK) was used to print the CK/BSA control/M13 control, 5 repeats per sample (CK 25 μg/ml and 50 μg/ml; BSA 100 μg/ml; M13 20 μl), on PATH Protein Microarray Slides (GenTel, Prod.No. 2-1005/-1025) at […], and 50-70% relative humidity. Printed micro-array slides were stored at Room Temperature (RT) or 4° C. for at least 24 h before use.
(§2) (2) Blocking: Block Buffer (500 μl/partition; PATHblock, GenTel, Prod.No. 2-1014) was applied to the slide for 1 hour at room temp (RT). After removal of Block Buffer, the slide was air dried for 25 minutes;
(§3) (3) Phage Presented Peptide Binding: Amplified recombinant phage stock was stored in TBS and diluted with Wash Buffer to working titer (10^7 pfu/μl). Recombinant phage suspension (300 μl) was applied per partition and incubated at RT for 1 hour with gentle agitation.
(§4) (4) First Washing: The slides were washed twice with Wash Buffer 300 μl/partition).
(§5) (5) Primary Antibody (Ab) Labeling: The slides were incubated with the Primary Ab (1 mg/ml diluted ×2500 (Wash Reagent), 300 μl; Mouse Anti-M13 monoclonal Ab; Amersham Biosciences, UK; Product Code 27-9420-01) for 45 minutes at RT.
(§6) (6) Second Washing: The slides were washed twice with Wash Buffer (300 μl/partition).
(§7) (7) Secondary Ab Labeling: The slides were incubated with Secondary Ab (1.5 mg/ml diluted ×5000 (Wash Reagent), 300 μl; Cy3-conjugated AffiniPure Goat Anti-Mouse IgG; Jackson ImmunoReserch Labs, USA; Product Code 115-165-062).
(§8) (8) Third Washing: The slides were washed twice with Wash Buffer (300 μl/partition).
(§9) (9) Rinse: the slides were rinsed twice with Rinse Buffer (PATHrinse, GenTel, Prod.No. 2-1018) then dried well.
(§10) (10) Scanning: The peptide-bound, labeled slide was scanned (Laser Intensity 80%, Gain 80%, Resolution 10 μm) with a ScanArray Life Scanner (Packard BioChip Technologies, USA).
(§11) (11) Analysis: Quantitative analysis of micro-array was performed by the SpotReader program of Niles Scientific (USA) and presented as Relative Fluorescence (RF) as a function of CK concentration. Micro-array readout (Cy3 fluorescence) was quantified to determine the relative binding affinities of a CBP for the CKs and by inference, the specificity of the CBP for binding to a CK.

IL-8 = assay: Micro-array analysis of chemokine binding peptides: IL-8; settings: limit = start of the upper 75% of that peptide's response range
Chain of IL-8 (P10145 28-99 limits assumed): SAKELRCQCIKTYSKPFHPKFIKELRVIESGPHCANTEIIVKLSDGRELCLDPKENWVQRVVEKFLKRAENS
Experimental: as §1, §2, §3, §4, §5, §6, §7, §8, §9, §10, §11

Mig = biological target: T2, Mig (Homo sapiens, UniProt Q07325); assay: Micro-array analysis of chemokine binding peptides: Mig; settings: limit = start of the upper 75% of that peptide's response range
T2 construct: purchased 300-26
T2 sequence (Q07325 23-125): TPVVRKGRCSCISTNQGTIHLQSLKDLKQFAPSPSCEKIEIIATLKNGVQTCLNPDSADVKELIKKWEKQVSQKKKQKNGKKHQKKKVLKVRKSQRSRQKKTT
Experimental: as §1, §2, §3, §4, §5, §6, §7, §8, §9, §10, §11

I-TAC = biological target: T3, I-TAC (Homo sapiens, UniProt O14625); assay: Micro-array analysis of chemokine binding peptides: I-TAC; settings: limit = start of the upper 75% of that peptide's response range
T3 construct: purchased 300-46
T3 sequence (O14625 22-94): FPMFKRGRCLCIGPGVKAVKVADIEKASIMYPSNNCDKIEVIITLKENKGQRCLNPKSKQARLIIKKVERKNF
Experimental: as §1, §2, §3, §4, §5, §6, §7, §8, §9, §10, §11

I-309 = biological target: T4, I-309 (Homo sapiens, UniProt P22362); assay: Micro-array analysis of chemokine binding peptides: I-309; settings: limit = start of the upper 75% of that peptide's response range
T4 construct: purchased 300-37
T4 sequence (P22362 24-96): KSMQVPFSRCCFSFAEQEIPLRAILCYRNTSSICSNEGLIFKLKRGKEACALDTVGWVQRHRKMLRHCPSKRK
Experimental: as §1, §2, §3, §4, §5, §6, §7, §8, §9, §10, §11

MCP-2 = biological target: T5, MCP-2 (Homo sapiens, UniProt P80075); assay: Micro-array analysis of chemokine binding peptides: MCP-2; settings: limit = start of the upper 75% of that peptide's response range
T5 construct: purchased 300-15
T5 sequence (P80075 24-99): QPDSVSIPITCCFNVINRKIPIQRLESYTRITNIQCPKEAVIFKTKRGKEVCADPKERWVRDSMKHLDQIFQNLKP
Experimental: as §1, §2, §3, §4, §5, §6, §7, §8, §9, §10, §11

MCP-4 = biological target: T6, MCP-4 (Homo sapiens, UniProt Q99616); assay: Micro-array analysis of chemokine binding peptides: MCP-4; settings: limit = start of the upper 75% of that peptide's response range
T6 construct: purchased 300-24
T6 sequence (Q99616 17-98): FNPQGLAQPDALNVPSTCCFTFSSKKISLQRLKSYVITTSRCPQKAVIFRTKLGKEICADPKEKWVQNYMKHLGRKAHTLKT
Experimental: as §1, §2, §3, §4, §5, §6, §7, §8, §9, §10, §11

RANTES = biological target: T7, RANTES (Homo sapiens, UniProt P13501); assay: Micro-array analysis of chemokine binding peptides: RANTES; settings: limit = start of the upper 75% of that peptide's response range
T7 construct: purchased 300-06
T7 sequence (P13501 24-91): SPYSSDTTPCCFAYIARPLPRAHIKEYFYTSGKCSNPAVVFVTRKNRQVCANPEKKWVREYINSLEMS
Experimental: as §1, §2, §3, §4, §5, §6, §7, §8, §9, §10, §11

Eotaxin = biological target: T8, Eotaxin (Homo sapiens, UniProt P51671); assay: Micro-array analysis of chemokine binding peptides: Eotaxin; settings: limit = start of the upper 75% of that peptide's response range
T8 construct: purchased 300-21
Experimental: as §1, §2, §3, §4, §5, §6, §7, §8, §9, §10, §11

Eotaxin 2 = biological target: T9, Eotaxin 2 (Homo sapiens, UniProt O00175); assay: Micro-array analysis of chemokine binding peptides: Eotaxin 2; settings: limit = start of the upper 75% of that peptide's response range
T9 construct: purchased 300-33
T9 sequence (O00175 27-119): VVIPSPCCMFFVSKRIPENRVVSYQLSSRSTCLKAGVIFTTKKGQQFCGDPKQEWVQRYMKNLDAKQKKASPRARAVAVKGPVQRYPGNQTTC
Experimental: as §1, §2, §3, §4, §5, §6, §7, §8, §9, §10, §11

Eotaxin 3 = biological target: T10, Eotaxin 3 (Homo sapiens, UniProt Q9Y258); assay: Micro-array analysis of chemokine binding peptides: Eotaxin 3; settings: limit = start of the upper 75% of that peptide's response range
T10 construct: purchased 300-48
T10 sequence (Q9Y258 24-94): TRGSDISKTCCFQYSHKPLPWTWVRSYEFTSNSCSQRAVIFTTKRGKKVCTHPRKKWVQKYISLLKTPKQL
Experimental: as §1, §2, §3, §4, §5, §6, §7, §8, §9, §10, §11

SDF1-α = biological target: T11, SDF1-α (Homo sapiens, UniProt P48061); assay: Micro-array analysis of chemokine binding peptides: SDF1-α
T11 construct: purchased 300-28a
T11 sequence (P48061 22-89 limits assumed): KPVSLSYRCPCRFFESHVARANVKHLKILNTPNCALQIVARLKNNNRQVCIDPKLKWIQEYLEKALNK
Experimental: as §1, §2, §3, §4, §5, §6, §7, §8, §9, §10, §11

SDF1-β = biological target: T12, SDF1-β (Homo sapiens, UniProt P48061); assay: Micro-array analysis of chemokine binding peptides: SDF1-β
T12 construct: purchased 300-28b
T12 sequence (P48061 22-93): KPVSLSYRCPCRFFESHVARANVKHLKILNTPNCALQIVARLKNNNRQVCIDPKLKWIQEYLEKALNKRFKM
Experimental: as §1, §2, §3, §4, §5, §6, §7, §8, §9, §10, §11

BCA-1 = biological target: T13, BCA-1 (Homo sapiens, UniProt O43927); assay: Micro-array analysis of chemokine binding peptides: BCA-1
T13 construct: purchased 300-47
T13 sequence (O43927 23-109): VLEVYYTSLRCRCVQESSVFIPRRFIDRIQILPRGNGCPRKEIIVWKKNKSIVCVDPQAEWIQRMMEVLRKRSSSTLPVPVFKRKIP
Experimental: as §1, §2, §3, §4, §5, §6, §7, §8, §9, §10, §11

TECK = biological target: T14, TECK (Homo sapiens, UniProt O15444); assay: Micro-array analysis of chemokine binding peptides: TECK
T14 construct: purchased 300-45
T14 sequence (O15444 24-150): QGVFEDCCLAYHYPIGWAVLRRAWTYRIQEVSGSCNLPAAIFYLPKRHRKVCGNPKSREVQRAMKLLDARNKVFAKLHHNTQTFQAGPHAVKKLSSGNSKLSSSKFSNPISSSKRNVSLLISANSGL
Experimental: as §1, §2, §3, §4, §5, §6, §7, §8, §9, §10, §11

Fractalkine = biological target: T15, Fractalkine (Homo sapiens, UniProt P78423); assay: Micro-array analysis of chemokine binding peptides: Fractalkine
T15 construct: purchased 300-31
T15 sequence (P78423 25-100 limits assumed): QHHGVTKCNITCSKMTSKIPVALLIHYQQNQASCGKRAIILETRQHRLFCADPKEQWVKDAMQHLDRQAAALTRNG
Experimental: as §1, §2, §3, §4, §5, §6, §7, §8, §9, §10, §11

Lymphotactin = biological target: T16, Lymphotactin (Homo sapiens, UniProt P47992); assay: Micro-array analysis of chemokine binding peptides: Lymphotactin
T16 construct: purchased 300-20
T16 sequence (P47992 22-114): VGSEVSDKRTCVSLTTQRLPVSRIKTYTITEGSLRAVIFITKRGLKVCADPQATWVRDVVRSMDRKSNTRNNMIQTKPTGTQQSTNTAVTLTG
Experimental: as §1, §2, §3, §4, §5, §6, §7, §8, §9, §10, §11

Exodus-2 = biological target: T17, Exodus-2 (Homo sapiens, UniProt O00585); assay: Micro-array analysis of chemokine binding peptides: Exodus-2
T17 construct: purchased 300-35
T17 sequence (O00585 24-134): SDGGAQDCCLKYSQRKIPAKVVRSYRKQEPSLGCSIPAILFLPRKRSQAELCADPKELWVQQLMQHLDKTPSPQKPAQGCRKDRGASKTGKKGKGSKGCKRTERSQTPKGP
Experimental: as §1, §2, §3, §4, §5, §6, §7, §8, §9, §10, §11

binding to GRO-β with relatively high affinity (Relative Fluorescence Units) (GRO-β): > 10,000 RFU
binding to IL-8 with relatively high affinity (Relative Fluorescence Units) (IL-8): > 10,000 RFU
binding to Mig with relatively high affinity (Relative Fluorescence Units) (Mig): > 10,000 RFU
binding to I-TAC with relatively high affinity (Relative Fluorescence Units) (I-TAC): > 10,000 RFU
binding to I-309 with relatively high affinity (Relative Fluorescence Units) (I-309): > 10,000 RFU
binding to MCP-2 with relatively high affinity (Relative Fluorescence Units) (MCP-2): > 10,000 RFU
binding to MCP-4 with relatively high affinity (Relative Fluorescence Units) (MCP-4): > 10,000 RFU
binding to RANTES with relatively high affinity (Relative Fluorescence Units) (RANTES): > 10,000 RFU
binding to Eotaxin with relatively high affinity (Relative Fluorescence Units) (Eotaxin): > 10,000 RFU
binding to Eotaxin 2 with relatively high affinity (Relative Fluorescence Units) (Eotaxin 2): > 10,000 RFU
binding to Eotaxin 3 with relatively high affinity (Relative Fluorescence Units) (Eotaxin 3): > 10,000 RFU
binding to SDF1-α, stated in words (SDF1-α): bound
binding to SDF1-β, stated in words (SDF1-β): bound
binding to BCA-1, stated in words (BCA-1): bound
binding to TECK, stated in words (TECK): bound
binding to Fractalkine, stated in words (Fractalkine): bound
binding to Lymphotactin, stated in words (Lymphotactin): bound
binding to Exodus-2, stated in words (Exodus-2): bound
Substance: DYDY (listed as Homo sapiens) [Ph-p32]
